T1: prolactin receptor (PRLR) on T-47D human breast cancer cells (human, UniProt P16471 25-622)
T1 construct: whole, on cells; Endogenous receptor on T-47D cells; also called hPRLR; PRL receptor
T1 sequence (looked up): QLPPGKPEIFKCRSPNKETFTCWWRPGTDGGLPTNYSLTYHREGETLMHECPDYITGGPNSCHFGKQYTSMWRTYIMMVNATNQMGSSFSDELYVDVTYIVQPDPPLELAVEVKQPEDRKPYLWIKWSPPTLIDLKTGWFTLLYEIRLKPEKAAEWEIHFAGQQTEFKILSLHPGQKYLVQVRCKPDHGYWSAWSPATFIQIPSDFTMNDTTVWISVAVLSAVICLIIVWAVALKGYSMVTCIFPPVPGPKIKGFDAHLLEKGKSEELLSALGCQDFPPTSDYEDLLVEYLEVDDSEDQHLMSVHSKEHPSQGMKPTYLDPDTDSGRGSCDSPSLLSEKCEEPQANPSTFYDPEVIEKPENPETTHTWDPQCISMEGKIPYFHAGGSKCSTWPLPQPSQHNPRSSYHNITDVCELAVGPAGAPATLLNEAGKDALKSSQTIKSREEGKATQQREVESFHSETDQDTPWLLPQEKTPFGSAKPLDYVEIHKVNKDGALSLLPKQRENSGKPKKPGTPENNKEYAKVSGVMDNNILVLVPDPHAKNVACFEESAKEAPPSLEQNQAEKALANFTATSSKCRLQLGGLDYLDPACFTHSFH

B1: hPRL-G129R (ligand)
chain: MLPICPGGAARCQVTLRDLFDRAVVLSHYIHNLSSEMFSEFDKRYTHGRGFITKAINSCHTSSLATPEDKEQAQQMNQKDFLSLIVSILRSWNEPLYHLVTEVRGMQEAPEAILSKAVEIEEQTKRLLERMELIVSQVHPETKENEIYPVWSGLPSLQMADEESRLSAYYNLLHCLRRDSHKIDNYLKLLKCRIIHNNNC
notes: also called hPRLA; prolactin antagonist
B2: human prolactin (hPRL) (ligand, UniProt P01236 29-227, looked up)
chain: LPICPGGAARCQVTLRDLFDRAVVLSHYIHNLSSEMFSEFDKRYTHGRGFITKAINSCHTSSLATPEDKEQAQQMNQKDFLSLIVSILRSWNEPLYHLVTEVRGMQEAPEAILSKAVEIEEQTKRLLEGMELIVSQVHPETKENEIYPVWSGLPSLQMADEESRLSAYYNLLHCLRRDSHKIDNYLKLLKCRIIHNNNC
B3: G129R-endostatin fusion protein (GEFP) (other)
chain: MLPICPGGAARCQVTLRDLFDRAVVLSHYIHNLSSEMFSEFDKRYTHGRGFITKAINSCHTSSLATPEDKEQAQQMNQKDFLSLIVSILRSWNEPLYHLVTEVRGMQEAPEAILSKAVEIEEQTKRLLERMELIVSQVHPETKENEIYPVWSGLPSLQMADEESRLSAYYNLLHCLRRDSHKIDNYLKLLKCRIIHNNNCGSHSHRDFQPVLHLVALNSPLSGGMRGIRGADFQCFQQARAVGLAGTFRAFLSSRLQDLYSIVRRADRAAVPIVNLKDELLFPSWEALFSGSEGPLKPGARIFSFDGKDVLRHPTWPQKSVWHGSDPNGRRLTESYCETWRTEAPSATGQASSLLGGRLLGQSAASCHHAYIVLCIENSFMTASK
notes: The C-terminus of G129R is fused to the N-terminus of endostatin; E. coli product with an extra Met at the N-terminus; also called hPRL-G129R-Endo fusion protein

These binders were tested against T1, prolactin receptor (PRLR) on T-47D … (assay: competitive radioreceptor binding assay on T-47D cells, 125I-hPRL tracer).
Description: Radioreceptor binding assays were performed as previously described (Chen et al., 1991; Appendix B). Briefly, T-47D cells will be grown in six-well tissue culture plates until 90% confluent (˜10⁵ cells/well). Monolayers of cells were starved in serum-free RPMI-1640 medium for 2h. The cells were then incubated at room temperature for two hours in serum-free RPMI-1640 containing 8×10⁴ cpm ¹²⁵I hPRL (Specific Activity=30 μCi/μg; NEN Dupont, Boston, Mass.) with or without hPRL, hPRL-G129R, endostatin, or GEFP at various concentrations. Cells were then washed three times in serum-free RPMI-1640 and solubilized in 0.5 ml of 0.1N NaOH/1% SDS, and the bound radioactivity was determined by a Gamma counter (ICN Biomedical, model 4/600plus; Costa Mesa, Calif.).
B1: binds.
B2: binds.
B3: binds.
